# Reference: patent publication US6468985B1, “Retinoblastoma protein-interacting zinc finger proteins” (The Burnham Institute, priority 1994, dated 2002)
# T1: wild-type Rb (Homo sapiens, UniProt P06400)
# T1 construct: Wild-type (wt) full length Rb (A9); made in house; host or cells: in vitro transcription/translation
# T1 sequence (P06400 1-928): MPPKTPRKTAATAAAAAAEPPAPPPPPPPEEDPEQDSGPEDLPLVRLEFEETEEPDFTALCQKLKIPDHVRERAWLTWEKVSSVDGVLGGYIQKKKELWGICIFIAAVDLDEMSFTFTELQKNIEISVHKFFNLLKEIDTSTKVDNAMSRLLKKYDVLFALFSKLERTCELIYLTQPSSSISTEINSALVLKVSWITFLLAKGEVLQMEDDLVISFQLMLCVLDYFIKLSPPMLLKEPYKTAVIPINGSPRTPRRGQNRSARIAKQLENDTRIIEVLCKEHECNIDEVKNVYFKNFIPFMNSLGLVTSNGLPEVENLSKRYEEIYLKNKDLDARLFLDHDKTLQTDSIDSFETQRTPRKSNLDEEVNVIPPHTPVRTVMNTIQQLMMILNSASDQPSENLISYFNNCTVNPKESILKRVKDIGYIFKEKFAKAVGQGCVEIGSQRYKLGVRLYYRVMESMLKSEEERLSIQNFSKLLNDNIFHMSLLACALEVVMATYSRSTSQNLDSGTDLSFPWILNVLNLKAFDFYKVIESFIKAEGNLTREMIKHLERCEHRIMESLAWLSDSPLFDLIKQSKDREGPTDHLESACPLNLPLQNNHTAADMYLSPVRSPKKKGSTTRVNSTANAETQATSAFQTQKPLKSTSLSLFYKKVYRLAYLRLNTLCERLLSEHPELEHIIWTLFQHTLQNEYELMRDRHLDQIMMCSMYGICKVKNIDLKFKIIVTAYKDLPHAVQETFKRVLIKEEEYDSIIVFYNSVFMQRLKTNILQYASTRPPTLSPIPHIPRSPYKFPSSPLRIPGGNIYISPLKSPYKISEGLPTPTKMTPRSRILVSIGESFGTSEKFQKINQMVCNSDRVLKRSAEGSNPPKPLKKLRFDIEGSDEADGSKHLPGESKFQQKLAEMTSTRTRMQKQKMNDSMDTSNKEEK
# T2: RIZ (Rattus norvegicus, UniProt Q63755)
# T2 construct: made in house; host or cells: in vitro transcription/translation (rabbit reticulocyte lysate)
# T2 sequence (Q63755 245-883): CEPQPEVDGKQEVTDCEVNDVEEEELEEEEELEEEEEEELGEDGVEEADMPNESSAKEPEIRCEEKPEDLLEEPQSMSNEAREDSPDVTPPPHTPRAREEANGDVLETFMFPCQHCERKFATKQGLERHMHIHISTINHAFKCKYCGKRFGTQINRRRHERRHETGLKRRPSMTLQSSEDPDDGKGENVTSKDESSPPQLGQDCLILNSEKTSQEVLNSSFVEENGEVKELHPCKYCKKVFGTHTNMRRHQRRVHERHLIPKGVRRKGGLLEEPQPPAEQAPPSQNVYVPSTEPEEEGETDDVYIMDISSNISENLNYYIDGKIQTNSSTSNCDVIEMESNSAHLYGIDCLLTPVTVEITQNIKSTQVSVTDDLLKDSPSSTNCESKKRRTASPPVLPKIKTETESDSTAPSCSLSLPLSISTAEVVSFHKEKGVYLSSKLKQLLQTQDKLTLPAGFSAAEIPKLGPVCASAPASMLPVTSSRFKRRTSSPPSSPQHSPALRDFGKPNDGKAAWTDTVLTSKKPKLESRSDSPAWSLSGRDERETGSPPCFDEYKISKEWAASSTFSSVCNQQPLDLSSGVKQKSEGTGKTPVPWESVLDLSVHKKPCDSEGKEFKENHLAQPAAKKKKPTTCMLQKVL
# B1: GST-RIZ (245-573): glutathionine S-transferase fused to RIZ fragment a.a. 245-573 containing zinc fingers 1-3 (protein)
# chain: CEPQPEVDGKQEVTDCEVNDVEEEELEEEEELEEEEEEELGEDGVEEADMPNESSAKEPEIRCEEKPEDLLEEPQSMSNEAREDSPDVTPPPHTPRAREEANGDVLETFMFPCQHCERKFATKQGLERHMHIHISTINHAFKCKYCGKRFGTQINRRRHERRHETGLKRRPSMTLQSSEDPDDGKGENVTSKDESSPPQLGQDCLILNSEKTSQEVLNSSFVEENGEVKELHPCKYCKKVFGTHTNMRRHQRRVHERHLIPKGVRRKGGLLEEPQPPAEQAPPSQNVYVPSTEPEEEGETDDVYIMDISSNISENLNYYIDGKIQTNSS
# modifications: left off: a dimerising Fc or GST
# Key:
# wild-type Rb = molecular target: T1, wild-type Rb; assay: binding of GST-RIZ (245-573) to 35S-labeled Rb, immunoprecipitation with anti-RIZ antiserum
# Experimental: (§1) The 56 kD Rb fragment that binds to RIZ is a C-terminal fragment containing the Rb pocket binding region and a C-terminal extension. To further define the portion of 56 kD Rb that binds to RIZ, several Rb mutant polypeptides were tested for binding to RIZ. Mutant and full length Rb were cloned and in vitro transcribed/translated as described previously (Huang et al., supra, 1990). H209 is a point mutation resulting in a single amino acid change in Rb that was identified in the small cell lung cancer H209 cell line (American Type Culture Collection (ATCC) #HTB 172). The various Rb forms were tested for binding to glutathionine S-transferase (GST) fused to a fragment of RIZ from amino acid position 245-573 (GST-RIZ (245-573)). This RIZ fragment contains all of the E1A motifs related to binding Rb and was constructed by cloning a Stu I-Hpa I RIZ fragment (nucleotide 795-3068) into vector pBSK+ to make pBSK+SH. An Eco RI fragment was removed from pBSK+SH and ligated into pGEX-KG to produce vector pKG7.1S containing GST-RIZ (245-573).
# (§2) The binding between purified GST-RIZ (245-573) and the above radiolabeled Rb wild-type and deletion mutants was determined by immunoprecipitation with an anti-RIZ antiserum followed by SDS-PAGE and autoradiography. […]
# [1] = test system: Rb having a deletion within the pocket; assay: binding of GST-RIZ (245-573) to 35S-labeled Rb pocket deletion mutants, immunoprecipitation with anti-RIZ antiserum
# Experimental: as §1, §2
# RIZ = molecular target: T2, RIZ; assay: binding of anti-RIZ antiserum / anti-ce1 antibody to RIZ and RIZ truncation mutants; settings: addition of the immunogen
# Experimental: Anti-RIZ antibodies purified from the E1A affinity column were tested for binding to RIZ and E1A. […] The E1A-affinity purified RIZ antibodies were designated “anti-ce1” for cross reacting E1A antigen.
# Anti-ce1 antibodies were tested for binding to various deletion mutants of RIZ and E1A 12S in order to map the location of the ce1 epitope on each molecule.
# To evaluate this possibility, an 11 amino acid peptide encompassing residues 310-320 in RIZ (ce1 peptide) [sequence] (SEQ ID NO: 7) and an overlapping 11 amino acid control peptide encompassing residues 304-314 containing the cr2 core motif of RIZ, peptide [sequence] (SEQ ID NO: 6), were synthesized by solid phase peptide synthesis and tested for their ability to block binding between anti-ce1 antibody and RIZ or E1A.
molecule,measurement,setting,value
B1,binding to wild-type Rb,wild-type Rb,showed binding
same,binding to three forms of Rb having a deletion within the pocket,[1],failed to bind
same,inhibition of anti-RIZ antiserum binding to RIZ (245-883),RIZ,inhibited
